Measured values from US20230090247A1, “MOLECULES TARGETING RAS PROTEIN” (AELIN THERAPEUTICS, priority 2020, published 2023).
Values belong to the substance of their own block, whether it stands above or below them. Ends that are not written are not given here.

Legend:
KRAS G12D mutant = target: T1, KRAS G12D mutant (Homo sapiens, UniProt P01116, G12D); assay: In vitro translation assay with streptavidin pull-down, KRAS G12D; format: binding; settings: 10 μM biotinylated pept-in, Western blot
T1 construct: made in house; host or cells: cell-free: PURExpress In Vitro Protein Synthesis Kit (New England Biolabs), linear T7 DNA template
From the text: (§1) FIG. 5 illustrates in vitro translation assay showing target selectivity of RAS-targeting molecules (‘pept-ins’) according to certain embodiments of the present invention. In vitro translation assay producing either wild-type or different mutant KRAS in the presence of biotinylated RAS-targeting pept-ins. Streptavidin pull-down was used to capture the biotinylated pept-ins from the translation reaction and pulled-down fraction was probed for KRAS using Western blot. The biotinylated version of pept-in 04-004-N001, i.e. 04-004-N011, which harbours an APR window sequence derived from a wild-type APR, would be predicted to target all RAS proteins independently from their mutation status. […]
(§2) In vitro translation assays were performed using the PURExpress® In Vitro Protein Synthesis Kit (New England Biolabs) according to the manufacturer's instructions. […] Proteins were resolved using Any kD 15-well Mini-PROTEAN gels (Bio-Rad) during SDS-PAGE and probed for KRAS after Western blotting using a mouse monoclonal KRAS-specific antibody (SC-30, Santa Cruz Biotechnology), which was detected with an HRP-coupled anti-mouse secondary antibody using chemiluminescence on a Bio-Rad Chemidoc MP imaging instrument. […]

KRAS wild-type = target: T2, KRAS wild-type (Homo sapiens, UniProt P01116); assay: In vitro translation assay with streptavidin pull-down, KRAS wild-type; format: binding; settings: 10 μM biotinylated pept-in, Western blot
T2 construct: made in house; host or cells: cell-free: PURExpress In Vitro Protein Synthesis Kit (New England Biolabs), linear T7 DNA template
From the text: as §1, §2

G12V mutant KRAS = target: T3, G12V mutant KRAS (Homo sapiens, UniProt P01116, G12V); assay: In vitro translation assay with streptavidin pull-down, KRAS G12V; format: binding; settings: 10 μM biotinylated pept-in, Western blot
T3 construct: made in house; host or cells: cell-free: PURExpress In Vitro Protein Synthesis Kit (New England Biolabs), linear T7 DNA template
From the text: FIG. 5 illustrates in vitro translation assay showing target selectivity of RAS-targeting molecules (‘pept-ins’) according to certain embodiments of the present invention. In vitro translation assay producing either wild-type or different mutant KRAS in the presence of biotinylated RAS-targeting pept-ins. Streptavidin pull-down was used to capture the biotinylated pept-ins from the translation reaction and pulled-down fraction was probed for KRAS using Western blot. The biotinylated version of pept-in 04-004-N001, i.e. 04-004-N011, which harbours an APR window sequence derived from a wild-type APR, would be predicted to target all RAS proteins independently from their mutation status. […] Using the biotinylated versions of the biologically active pept-ins harbouring an APR window containing the G12V mutant site (04-006-N007, 04-015-N026 and 04-033-N003), however, pull-down was only observed for the G12V mutant KRAS and, in the case of 04-015-N026, for G12C mutant KRAS.
In vitro translation assays were performed using the PURExpress® In Vitro Protein Synthesis Kit (New England Biolabs) according to the manufacturer's instructions. Briefly, linear DNA fragments containing T7 promotor and terminator sequences flanking the KRAS coding sequence were generated using PCR and purified using the MinElute PCR Purification Kit (Qiagen). 250 ng of linear DNA was subsequently used for the in vitro translation reaction, which was performed for 2 hours at 37° C. with shaking (1000 rpm). Indicated biotinylated pept-ins were mixed in the translation reactions from a 5 mM stock solution in 6M Urea to a final concentration of 10 μM. Upon completion of the translation reaction, biotinylated pept-ins were captured from the reaction mix using Streptavidin coated beads (Pierce) during 90 min at room temperature. Beads were next washed with TBS containing 0.1% Tween 20 and bound proteins were finally boiled off in 1×SDS loading dye (Bio-Rad) in TBS buffer. Proteins were resolved using Any kD 15-well Mini-PROTEAN gels (Bio-Rad) during SDS-PAGE and probed for KRAS after Western blotting using a mouse monoclonal KRAS-specific antibody (SC-30, Santa Cruz Biotechnology), which was detected with an HRP-coupled anti-mouse secondary antibody using chemiluminescence on a Bio-Rad Chemidoc MP imaging instrument.
To mimic this in vitro, we devised an in vitro translation setup producing either wild-type or mutant (G12V, G12C, G12D or G13D) KRAS in the presence of biotinylated RAS-targeting pept-ins. This allowed us to perform a streptavidin pull-down to capture the biotinylated pept-ins from the translation reaction and perform SDS-PAGE and Western blotting to probe the pulled-down fraction for the presence of KRAS. […]

wild-type KRAS = target: T4, wild-type KRAS (Homo sapiens, UniProt P01116); assay: Cellular co-immunoprecipitation in KRAS wild-type expressing RASless MEFs; format: cell-based; settings: 25 μM biotinylated pept-in, 16 hours
T4 construct: host or cells: RASless mouse embryonic fibroblasts expressing a KRAS transgene
Method: (§3) FIG. 10 illustrates cellular co-immunoprecipitation assays showing target engagement by RAS-targeting molecules (‘pept-ins’) according to certain embodiments of the present invention. Cellular target engagement of biotinylated pept-ins was assessed using co-immunoprecipitation assay. KRAS wild-type or mutant G12V expressing RASless MEFs. […] The biotinylated versions of the G12V-selective pept-ins, however, show preferential binding to the G12V mutant KRAS protein.
(§4) Cellular co-immunoprecipitation assays were performed using either KRAS wild-type or mutant G12V expressing RASless MEFs (see elsewhere) or human NCI-H441 lung adenocarcinoma tumor cells and N-terminally biotinylated pept-ins. Cells were seeded at a density of 300,000 cells in a clear 6-well plate (Cellstar, Greiner). […] Next, cells were lysed with NP-40 lysis buffer (150 mM NaCl, 50 mM Tris HCl pH8, 1% IGEPAL (NP40), 1× Halt phosphatase/protease inhibitors (Thermo), 1 U/μl Universal Nuclease (Pierce)) and biotinylated pept-ins were captured with streptavidin-coated magnetic beads (Pierce) during 1 hours at room temperature. Beads were washed with NP40 lysis buffer at least 3 times, after which bound proteins were boiled off in 1×SDS loading dye (Bio-Rad) in NP40 lysis buffer. […]

mutant G12V KRAS = target: T5, mutant G12V KRAS (Homo sapiens, UniProt P01116, G12V); assay: Cellular co-immunoprecipitation in KRAS G12V expressing RASless MEFs; format: cell-based; settings: 25 μM biotinylated pept-in, 16 hours
T5 construct: host or cells: RASless mouse embryonic fibroblasts expressing a KRAS G12V transgene
Method: as §3, §4

G12C mutant KRAS = target: T6, G12C mutant KRAS (Homo sapiens, UniProt P01116, G12C); assay: In vitro translation assay with streptavidin pull-down, KRAS G12C; format: binding; settings: 10 μM biotinylated pept-in, Western blot
T6 construct: made in house; host or cells: cell-free: PURExpress In Vitro Protein Synthesis Kit (New England Biolabs), linear T7 DNA template
From the text: as §1, §2

KRAS G13D mutant = target: T7, KRAS G13D mutant (Homo sapiens, UniProt P01116, G13D); assay: In vitro translation assay with streptavidin pull-down, KRAS G13D; format: binding; settings: 10 μM biotinylated pept-in, Western blot
T7 construct: made in house; host or cells: cell-free: PURExpress In Vitro Protein Synthesis Kit (New England Biolabs), linear T7 DNA template
From the text: as §1, §2

[1] = tested on: HeLa cells overexpressing mCherry-tagged KRAS G12V; assay: Cellular fluorescent imaging in HeLa cells overexpressing mCherry-tagged KRAS G12V; format: cell-based, human; settings: 75 min after treatment with the FITC-labeled pept-in
Method: FIG. 7 illustrates cellular co-localization between mCherry-labeled KRAS and FITC-labeled RAS-targeting molecules (‘pept-ins’) according to certain embodiments of the present invention.
Fluorescent cellular imaging was performed using HeLa cells that were transduced with lentiviral particles carrying a construct expressing KRAS G12V labeled N-terminally with mCherry. Cells were seeded in a black μClear® Cellstar® F-bottom 96-well plates (Greiner) in […] full growth medium. […] Next, cells were fixed, washed and counterstained with the nuclear dye NucBlue™ (containing Hoechst 33342). Images were captured on a Leica confocal microscope.
To complement the co-immunoprecipitation approach, we also used a cellular imaging approach to show target engagement. To this end, we generated a HeLa cell line overexpressing mCherry-tagged KRAS G12V and FITC-labelled versions of the RAS-targeting pept-ins.

[2] = tested on: SW620 xenograft of human KRAS G12V mutant colorectal cancer; assay: In vivo SW620 xenograft model; set-up: species or system Female NCr nu/nu mice
Method: FIG. 12 illustrates that RAS-targeting pept-ins reduce tumor growth in a xenograft model of KRAS G12V mutant cancer. […] Pept-ins were dosed 3 times per week by intratumoral injection at either 20 or 200 μg once the tumors reached 100-150 mm^3. Model response was monitored by a positive control group receiving Irinotecan at 100 mg/kg, once per week for 3 weeks. Group sizes were N=6 for the non-treated group, N=5 for the vehicle groups and N=8 for the pept-in and positive control groups. Graphs show box plots of tumor volumes at day 22 after treatment started.
Female NCr nu/nu mice (8 to 12 weeks) were inoculated with 1×10^6 SW620 tumor cells in 50% Matrigel subcutaneously in the hind flank. The cell Injection Volume was 0.1 mL/mouse. When tumors reached an average size of 100-150 mm^3 a pair match was performed, and treatment started. Group sizes were N=6 for the non-treated group, N=5 for the vehicle groups and N=8 for the pept-in and positive control groups. Tumor growth was monitored by caliper measurement twice per week. Model response was monitored by Irinotecan dosed once per week at 100 mg/kg intraperitoneally for 3 weeks.
To assess whether the RAS-targeting pept-ins are able to attenuate growth of KRAS G12V-driven tumors in vivo, a subcutaneous xenograft model of human KRAS G12V colorectal cancer (SW620) was used. Once the tumors reached 100-150 mm^3 in size, pept-ins were administered directly into the tumor mass by intratumoral injection three times per week during two weeks at two different doses (20 μg and 200 μg).

[3] = tested on: RASless MEFs expressing KRAS G12V; assay: RASless MEF spheroid efficacy, KRAS G12V expressing MEFs; format: cell-based, mouse; settings: spheroids, 5 days of exposure, compared to KRAS WT and G12C MEFs
Method: (§5) FIG. 9 illustrates mutant-selective cellular efficacy using the RASless MEF panel. Graph showing mean±SD as well as individual assay IC50s from at least three independent experiments assessing the efficacy of the indicated RAS-target pept-ins on a panel of RASless MEFs, expressing either wild-type (WT), mutant G12V or G12C KRAS, or a V600E mutant BRAF in absence of endogenous K-, H-, and NRAS.
(§6) For the single-dose viability screen on spheroid cultures, 1000 cells were seeded per well in black Ultra-Low Attachment (ULA) round-bottom 96-well plates (Corning) in […] full growth medium. […] Technical duplicates were included for all experimental pept-in conditions 5 days after treatment viability was assessed using the CellTiter Glo 3D reagent (Promega) according to the manufacturer's instructions, with the following adaptation: 80 μL of reagent was added per well. Readout was performed on a Clariostar plate reader (BMG). […]
(§7) RAS mutant-selectivity on cellular efficacy was assessed using the isogenic RASless mouse embryonic fibroblast (MEF) panel. […] The panel assessed included the common clinical KRAS variants expressed as transgene (WT, G12V and G12C) and an additional cell line dependent on the expression of BRAF V600E for proliferation.
(§8) Efficacy of RAS-targeting pept-ins on MEFs growing as spheroids was assessed after 5 days of exposure. […]

[4] = tested on: RASless MEFs expressing KRAS G12C; assay: RASless MEF spheroid efficacy, KRAS G12C expressing MEFs; format: cell-based, mouse; settings: spheroids, 5 days of exposure
Method: as §5, §6, §7, §8

[5] = tested on: RASless MEFs expressing KRAS WT; assay: RASless MEF spheroid efficacy, KRAS WT expressing MEFs; format: cell-based, mouse; settings: spheroids, 5 days of exposure
Method: as §5, §6, §7, §8

KRAS G12V = KRAS G12V (human, UniProt P01116-2 1-188, limits assumed); assay: cell-based or functional assay

binding (pull-down) to KRAS G12D (KRAS G12D mutant): less efficient
streptavidin pull-down of KRAS wild-type (KRAS wild-type): efficient pull-down
streptavidin pull-down of KRAS G12V (G12V mutant KRAS): efficient pull-down
streptavidin pull-down of KRAS G12C (G12C mutant KRAS): efficient pull-down
binding (pull-down) to KRAS G13D (KRAS G13D mutant): less efficient
Substance: 04-004-N011: biotinylated version of pept-in 04-004-N001 (KLSVFAIKGSKLSVFAIK; also: biotinylated, site not given here)
co-precipitation of wild-type KRAS (wild-type KRAS): precipitate both wild-type and mutant G12V KRAS well
co-precipitation of mutant G12V KRAS (mutant G12V KRAS): precipitate both wild-type and mutant G12V KRAS well

streptavidin pull-down of KRAS G12V (G12V mutant KRAS): notable pull-down
Substance: 04-006-N007: biotinylated version of a biologically active pept-in harbouring an APR window containing the G12V mutant site (KVVVGAVKGSKVVVGAVK; also: biotinylated, site not given here)

streptavidin pull-down of KRAS G12V (G12V mutant KRAS): notable pull-down
streptavidin pull-down of KRAS G12C (G12C mutant KRAS): notable pull-down
Substance: 04-015-N026: biotinylated version of a biologically active pept-in harbouring an APR window containing the G12V mutant site (KVVVGAVGKGSKVVVGAVGK; also: biotinylated, site not given here)

Substance: 04-015-N032: FITC-labelled version of pept-in 04-015-N001 (KVVVGAVGKGSKVVVGAVGK; not fully specified (C-terminus); also: FITC-labelled, site not given here)
association with mCherry-labelled KRAS (inclusion-like perinuclear structures) [1]: associates with mCherry-labelled KRAS

streptavidin pull-down of KRAS G12V (G12V mutant KRAS): notable pull-down
Substance: 04-033-N003: biotinylated version of a biologically active pept-in harbouring an APR window containing the G12V mutant site (KVVVGAVGVGKGSKVVVGAVGVGK; also: biotinylated, site not given here)

Substance: Ac-KLSVFAIKGSKLSVFAIK-NH2 [04-004-N001]
average tumor volume at day 22 after treatment started ([2]; 20 μg intratumoral injection three times per week): only significant for the 200 μg dosing group
average tumor volume at day 22 after treatment started ([2]; 200 μg intratumoral injection three times per week): only significant for the 200 μg dosing group
efficacy on MEFs expressing KRAS G12V [3]: notable increased efficacy
efficacy on MEFs expressing KRAS G12C [4]: responded similarly as the BRAF V600E expressing RASless MEFs
efficacy on MEFs expressing KRAS WT [5]: responded similarly as the BRAF V600E expressing RASless MEFs

Substance: SAH-SOS-1A (peptide)
IC50 on viability of adherent NCI-H441 cells after 4 days exposure (KRAS G12V): 15 µM
